Assay results as given in the supplement of paper PMC12042874.
± gives the uncertainty stated by the source.

assay: amyloid nucleation score (Sup35N fusion, yeast selection) (log enrichment); library NNK1; higher = more nucleation; inactive = no reads after selection
How it was run: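 Libraries of peptides of 20 random codons fused to Sup35N were expressed in psi-negative yeast and induced 24 hours with 100 μM copper sulfate. Selection was 7 days at 30°C on medium lacking adenine and uracil, and plasmid inserts were Illumina-sequenced before and after selection. Nucleation score is the DiMSum log enrichment of output over input reads, centred on the mode score of non-aggregating sequences, and sequences with under 100 input reads were left out.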

Going from YARWVGVSKVRNTQICNSMR to TVNYTCYYGYIIFGYASSVK, the amyloid nucleation score rises from -0.543 ± 0.79 to 3.63 ± 0.076.

TSFVSETGFTWVCVFLVAGT and MSLPYVICQQDR are within error of each other in amyloid nucleation score: 0.616 ± 1.1 for the first, -0.794 ± 1.4 for the second.

ELGPRPHTFLEFAGICVGGM and GTSSYMV are within error of each other in amyloid nucleation score: -0.422 ± 1.4 for the first, -0.01 ± 0.23 for the second.

VSLLSVWFDTHYIWSITGVD and VIHTRGNWSKRHVMIWISES are within error of each other in amyloid nucleation score: -0.247 ± 0.45 for the first, -0.016 ± 1.2 for the second.

QRGAVVQDLAM and DCWRRYYSSLLITVGGLFYK are within error of each other in amyloid nucleation score: 0.728 ± 0.71 for the first, -0.014 ± 0.34 for the second.

LAWLFYGFEIKL and ITVST are within error of each other in amyloid nucleation score: 0.241 ± 0.9 for the first, -0.134 ± 1.4 for the second.

FENFVASFLPNFGITLRKGQ and DCNFCL are within error of each other in amyloid nucleation score: 0.043 ± 0.24 for the first, -0.545 ± 1.1 for the second.

Going from RTCVIVKMNSTIALYLGQKE to RQVPPISGAISWGDSPSNGG, the amyloid nucleation score falls from 2.52 ± 0.12 to 0.18 ± 1.2.

Compared with AAVRALLYRCVVHVRFFFKE, SGVVE is lower in amyloid nucleation score: 1.06 ± 0.54 for the first, -0.433 ± 0.39 for the second.

ECVKTVTLVNYRVLRWSSVC and CRMGFNQLWLKLRNRCVGLG are within error of each other in amyloid nucleation score: 0.129 ± 0.35 for the first, -0.008 ± 0.36 for the second.

HTLTPAHPTNGVVT and VNPYMMLAQY are within error of each other in amyloid nucleation score: -0.871 ± 1.3 for the first, 0.748 ± 0.38 for the second.

SSMWFYLRM and SRVCYNRWLKLWDSDRPVIG are within error of each other in amyloid nucleation score: -0.595 ± 1.9 for the first, -0.001 ± 0.36 for the second.

DCYHLGQTIPISRFGLRTKL and YFVLALWFIGCYECLYLWLC are within error of each other in amyloid nucleation score: 0.826 ± 0.75 for the first, 1.21 ± 0.59 for the second.

VYHIYDG and GLGLCRVE are within error of each other in amyloid nucleation score: -0.662 ± 0.43 for the first, -0.373 ± 0.38 for the second.

NDDVSVSVSWPDMEVRWK and ILRRRMHDG are within error of each other in amyloid nucleation score: -0.179 ± 0.29 for the first, 0.247 ± 1.4 for the second.

SCPAGFCCAGANKYHVLGV and CYELSGWGNSWVGNRSLGFV are within error of each other in amyloid nucleation score: -0.137 ± 0.56 for the first, 0.626 ± 0.46 for the second.

MPTRKTMDGYASIEF and FSVNILQQFIMGQSRICVGA are within error of each other in amyloid nucleation score: -0.486 ± 0.41 for the first, -0.044 ± 0.38 for the second.

FSPFLIMVSESPFHPIPELR and DQFCDMPTWVLVMYKSRDFL are within error of each other in amyloid nucleation score: -0.991 ± 2.4 for the first, 0.862 ± 0.55 for the second.

Going from RYLYVPALPFNFLCL to ARERGCRSAH, the amyloid nucleation score falls from 1.63 ± 0.1 to 0.332 ± 0.42.

NFRGLRLSKIYLLHHAGNLW and MRLTNGSCHFVLF are within error of each other in amyloid nucleation score: 0.533 ± 0.47 for the first, -0.745 ± 1.7 for the second.

HCHFIFGGMIGS and TNSPKKGMNGYGFNATVWTS are within error of each other in amyloid nucleation score: -0.144 ± 1.2 for the first, 0.413 ± 0.9 for the second.

Going from VKLDIVFLMVFGPLCSESPF to GLTKYV, the amyloid nucleation score falls from 1.83 ± 0.24 to -0.462 ± 0.28.

First: VLSAGVCFMTRVRSVFDGVH
Second: TWIMIGDHFVAGLGYRERD
The amyloid nucleation score of the first is higher: 2.14 ± 0.24 for the first, -0.893 ± 0.43 for the second.

CLLHEASCGWFFGWFVRHT and VRMDHIRTKPPLHAIVAPQP are within error of each other in amyloid nucleation score: 0.989 ± 0.28 for the first, -1.68 ± 2.4 for the second.

ITAWWQVSL and IGSFGNRYRVPMRTASGYNM are within error of each other in amyloid nucleation score: 0.565 ± 0.36 for the first, 0.623 ± 1 for the second.

First: ILNGSPKWNGWRTITCSAVS
Second: VILFYSR
The amyloid nucleation score of the first is lower: 0.667 ± 0.44 for the first, 4.49 ± 0.11 for the second.

NMEITYLSVFVAVYVHLHFF and LCNFDSGFGNYGLL are within error of each other in amyloid nucleation score: -0.728 ± 0.88 for the first, -0.17 ± 0.52 for the second.

LLDWGFPG and QPPKHMTMYVYVDTHEAVLS are within error of each other in amyloid nucleation score: -1.22 ± 1.6 for the first, -0.133 ± 0.38 for the second.

IQGGKNYRKQDHTRHVTTGT and NRNTRLMWNDTVWGIRAARY are within error of each other in amyloid nucleation score: -1.37 ± 2.4 for the first, -0.279 ± 0.85 for the second.

QWVSMTEVYFVVNKRWMCSR and LINHIS are within error of each other in amyloid nucleation score: -1.39 ± 1.6 for the first, 0.444 ± 0.9 for the second.

RCLIDCD and FQATR are within error of each other in amyloid nucleation score: 0.157 ± 0.52 for the first, -0.238 ± 0.32 for the second.

TEGTYDNSSCHSDALGECLW and CSDRRS are within error of each other in amyloid nucleation score: 0.281 ± 0.33 for the first, -0.054 ± 0.53 for the second.

KREFQCWTSACFFDISSAEL and HSLSWDNKLCLCSAN are within error of each other in amyloid nucleation score: 0.34 ± 0.79 for the first, 0.099 ± 0.3 for the second.

IHGSRCVPKSQD and HSAALWIVWR are within error of each other in amyloid nucleation score: 0.201 ± 0.38 for the first, -0.358 ± 0.62 for the second.

First: TSNCGTSLIDHSVRLLMLQR
Second: LGQLNFLMWYPKYECRIYMG
The amyloid nucleation score of the first is lower: -0.163 ± 0.49 for the first, 6.656 ± 0.058 for the second.

Compared with VSPDYMSYCIGVYLINLISV, CFVVYGQTPSTVPRINAVLS is higher in amyloid nucleation score: 0.354 ± 0.59 for the first, 6.46 ± 0.069 for the second.

Compared with HKDVQGYVD, ILCSLYYICT is higher in amyloid nucleation score: 1.01 ± 0.97 for the first, 2.74 ± 0.071 for the second.

LVLGAVV and FMCVGSYDPYPWP are within error of each other in amyloid nucleation score: -0.104 ± 0.87 for the first, 0.659 ± 0.51 for the second.

VRFFAPPWTWWLC and SQLNCIDRTMGYDDRMEIRS are within error of each other in amyloid nucleation score: 0.087 ± 0.44 for the first, 0.014 ± 0.42 for the second.

First: SKVNISSYNSCFVRKGCQCR
Second: MYMIWEQGKPCSILDTHTVT
The amyloid nucleation score of the first is higher: 6.328 ± 0.046 for the first, 0.598 ± 0.26 for the second.

Going from ASRYGSLVPRVVKHLMTRGN to RNCNNVYFELSVLASFLRVR, the amyloid nucleation score rises from -1 ± 0.67 to 8.107 ± 0.05.

PYVSHCGIHFFGWFSWSRAS and VECVSVQRFGAQCLSCYPSW are within error of each other in amyloid nucleation score: 0.583 ± 0.46 for the first, -0.07 ± 0.55 for the second.

QFEFNFTKEDQYYEGFPVDW and FGCSSLCTLSTVEE are within error of each other in amyloid nucleation score: -0.827 ± 1.7 for the first, -1.21 ± 0.64 for the second.

Going from LRNAVFVDPSCNYYVFILRL to ISSYTCCFYSYHQSHVMPLG, the amyloid nucleation score rises from 3.72 ± 0.15 to 5.848 ± 0.051.

SCRTLANITLCPRSIQF and GDSVESQILLVVGCIY are within error of each other in amyloid nucleation score: 0.055 ± 0.65 for the first, -0.416 ± 1.2 for the second.

MREELRGSETG and HEFHRLDVAVYRG are within error of each other in amyloid nucleation score: -0.685 ± 0.63 for the first, -0.132 ± 0.29 for the second.

Going from IGHVNTYCCIADWSWVRGAG to KTCWTILSVLLTLK, the amyloid nucleation score falls from 8.895 ± 0.044 to 0.489 ± 0.58.

RFFPLVLGSLKYM and WRSSHINLGGIFRLSHTIYC are within error of each other in amyloid nucleation score: 0.827 ± 0.7 for the first, -0.16 ± 0.38 for the second.

Compared with TIVELFYDRSLR, IYGGRIS is lower in amyloid nucleation score: 1.17 ± 0.33 for the first, -0.557 ± 0.75 for the second.

RNSLNTLSPTARCSVSTFVR and MDARKTGTDNWRTS are within error of each other in amyloid nucleation score: 0.562 ± 1.2 for the first, -0.202 ± 0.32 for the second.

VDLILRRFEMRSDSLFGLWE and WNFLFSCLMLGSSWMACDWQ are within error of each other in amyloid nucleation score: -0.481 ± 0.58 for the first, -0.305 ± 0.76 for the second.

VRDSGRIGMFKMGKV and VILRIIILYCLYHVWISGM are within error of each other in amyloid nucleation score: -0.824 ± 0.88 for the first, 0.177 ± 0.34 for the second.

TYNEDEVPCLMLASDVRFSS and YVQFCGQHARR are within error of each other in amyloid nucleation score: 0.372 ± 0.64 for the first, -0.516 ± 1.7 for the second.

RTFFRFKMSPWCINDYIMMR and NHSGSFKCGRIVSRYDD are within error of each other in amyloid nucleation score: 0.222 ± 1.2 for the first, -1.37 ± 0.95 for the second.

HHNNDSDYKLREN and ISPCDIYRHLSIKGQSCDLI are within error of each other in amyloid nucleation score: 0.116 ± 0.48 for the first, 0.004 ± 0.32 for the second.

First: MWFRTAST
Second: IDMCYWISVPAKNVHVIDIP
The amyloid nucleation score of the first is higher: 6.339 ± 0.047 for the first, 1.29 ± 0.6 for the second.

RLLFLMSWSSVVWINCRVWS and AWKGRLAYKWIGNMMAGLVW are within error of each other in amyloid nucleation score: 0.657 ± 0.6 for the first, 0.005 ± 0.32 for the second.

First: ETARLCRWSYK
Second: IVFVLQGRRQ
The amyloid nucleation score of the first is higher: 2.22 ± 0.18 for the first, 0.634 ± 0.88 for the second.

ILGKFFIDLSDI and ILLLVSISMVKESDQWLING are within error of each other in amyloid nucleation score: -1.16 ± 0.43 for the first, -0.519 ± 0.51 for the second.

First: TLYPHTGEGGKRLDLGCLSR
Second: TRALVFRQYYIAPVHCYYLG
The amyloid nucleation score of the first is lower: 1.39 ± 0.48 for the first, 3.54 ± 0.19 for the second.

Compared with LAVFRCAARYYWNSFCLSRT, WNMFGS is higher in amyloid nucleation score: 0.03 ± 0.21 for the first, 0.848 ± 0.29 for the second.

First: TLCINWKPFP
Second: WCCGLCVLMQLNTVMLSKGL
The amyloid nucleation score of the first is lower: 0.308 ± 0.38 for the first, 5.33 ± 0.066 for the second.

Work on ALCYPLMDSRSSRSYVQTRR yielded an amyloid nucleation score of 2.61 ± 0.12.

With VGHYGRETHLCSWCQIANGA the amyloid nucleation score was “inactive”.
For GYARILKDLGYPFPYDLQHL, the amyloid nucleation score was “inactive”.
For NSCRMPYSGV, the amyloid nucleation score was “inactive”.
With SCILS the amyloid nucleation score was “inactive”.
For HNCDYNCFNRGAHRVSEVGI, the amyloid nucleation score was “inactive”.
